This note sets out measurements from patent publication US20200308290A1 (AbbVie / Abbott, published 2020).

Test [1] has as its target T1, human CD25 (recombinant soluble) (human, UniProt P01589 22-240).
T1 construct: extracellular domain; bought protein; also called IL2-Rα; recombinant human IL2-Rα
T1 sequence (looked up): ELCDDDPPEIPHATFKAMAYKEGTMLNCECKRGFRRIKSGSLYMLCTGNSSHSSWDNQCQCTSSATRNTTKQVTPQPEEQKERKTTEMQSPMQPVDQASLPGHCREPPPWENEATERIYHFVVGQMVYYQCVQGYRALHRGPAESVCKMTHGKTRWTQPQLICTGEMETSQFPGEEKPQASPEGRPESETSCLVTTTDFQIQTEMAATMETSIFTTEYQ
The test can be described thus: competition ELISA on plate-coated CD25: competitor antibody titrated against biotinylated daclizumab, OD415. On the technique in general: An ELISA detects its analyte on a solid surface through an enzyme-linked reagent.

The target of test [2] is T1, human CD25 (recombinant soluble). The test is described as above. This is another data set of the same source.
The target of test [3] is T2, human CD25 (human, UniProt P01589 22-213, limits assumed).
T2 construct: Recombinant soluble human CD25, coated on plates (ELISA) or injected over captured antibody (BIAcore); also called hCD25; IL2-R alpha
T2 sequence (looked up): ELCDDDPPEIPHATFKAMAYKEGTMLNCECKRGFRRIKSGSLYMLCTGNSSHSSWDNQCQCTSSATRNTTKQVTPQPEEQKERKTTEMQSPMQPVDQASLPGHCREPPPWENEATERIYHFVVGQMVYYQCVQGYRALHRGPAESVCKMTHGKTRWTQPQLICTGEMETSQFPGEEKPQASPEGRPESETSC
Nature of the test: competition ELISA vs biotinylated daclizumab, fold over wild type.

Test [4] has as its target T2, human CD25. Nature of the test: SPR (BIAcore). (In general: Surface plasmon resonance follows binding to a sensor surface in real time, without labels.)
The target of test [5] is T3, human CD25 on cells (human, UniProt P01589 22-272).
T3 sequence (looked up): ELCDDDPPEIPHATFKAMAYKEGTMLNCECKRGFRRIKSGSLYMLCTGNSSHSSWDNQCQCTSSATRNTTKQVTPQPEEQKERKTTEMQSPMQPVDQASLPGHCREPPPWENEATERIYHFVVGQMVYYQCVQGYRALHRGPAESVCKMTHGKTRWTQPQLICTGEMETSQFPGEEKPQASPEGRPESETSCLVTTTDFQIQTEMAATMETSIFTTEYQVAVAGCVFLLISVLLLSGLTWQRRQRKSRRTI
The test can be described thus: cell-based or functional assay.

Test [6] deals with T4, cynomolgous monkey CD25 (cynomolgous monkey).
T4 construct: also called cmCD25; cm
The test can be described thus: SPR (BIAcore), cynomolgous CD25.

In test [7] the target is T2, human CD25. Nature of the test: competition ELISA vs biotinylated daclizumab, fold over wild type. The source holds these as a separate data set.
Test [8] concerns the target T2, human CD25. Nature of the test: SPR (BIAcore). The source holds these as a separate data set.
Test [9] concerns the target T5, CD25 (recombinant) (human, UniProt P01589 22-213, limits assumed).
T5 construct: bought protein; also called IL2-R alpha; IL2-Rα
T5 sequence (looked up): T2 sequence (looked up)
The test can be described thus: ELISA, relative to wild type.

Test [10] deals with T5, CD25 (recombinant). Nature of the test: SPR (BIAcore).
Test [11] has as its target T6, recombinant human CD25 (IL2-Rα) (human, UniProt P01589 22-213, limits assumed).
T6 construct: Bought protein; also called recombinant human IL2-Rα; recombinant soluble human CD25
T6 sequence (looked up): T2 sequence (looked up)
The test can be described thus: direct-binding ELISA on plate-coated recombinant human IL2-Rα; EC50 benchmarked to DAC-HYP.
Method: MaxiSorp ELISA plates (Nunc Nalge International) were coated overnight at 4° C. with 100 μl/well of a 50 ng/ml solution of recombinant human IL2-Rα (R&D Systems or PeproTech, Inc., Rocky Hill, N.J.) in DPBS (Invitrogen Corporation), washed with Wash Buffer (PBS containing 0.1% Tween 20), and blocked for 30 min at room temperature with 200 μl/well of SuperBlock Blocking Buffer in TBS (Pierce Chemical Company). After washing with Wash Buffer, test antibodies (starting at 4 μg/ml and serially diluted 3-fold) in 100 μl/well of ELISA buffer (PBS containing 1% BSA and 0.1% Tween 20) were added in duplicate. After incubating the plates for 1 hr at room temperature, and washing with Wash Buffer, bound antibodies were detected using 100 μl/well of a 1:20,000 dilution of HRP-conjugated goat anti-human IgG (Southern Biotechnology Associates, Inc.) in ELISA buffer. After incubating for 1 hr at room temperature, and washing with Wash Buffer, color development was performed by adding 150 μl/well of TMB Peroxidase Substrate/Peroxidase Solution B (KPL, Inc.). After incubating for 8 min at room temperature, color development was stopped by adding 50 μl/well of 2 N sulfuric acid. Absorbance was read at 450 nm.

Test [12] deals with T6, recombinant human CD25 (IL2-Rα). Nature of the test: SPR (BIAcore), affinity benchmarked to DAC-HYP, n=3.
Method: Double referencing was applied in each analysis to eliminate background responses from reference surface and buffer only control (0 nM). […] Each set of experiments was performed three times to assess the standard deviation of the data.
Modified antibody proteins were tested for binding affinity using a surface plasmon resonance assay format in a BIAcore device. […] Recombinant soluble human CD25 was flowed over the sensor chip and changes in mass were detected. The data was interpreted to yield kₐ, kd and KD values for all the proteins tested.
Test [13] shares this target. Nature of the test: SPR (BIAcore), antibody captured by anti-human Fc, soluble human CD25 as analyte, n=3.
Method: (§1) For this capture approach, 30 μg/ml of GAHFc was immobilized to achieve a high response unit (20,000 RU) on each flow cell on the Research-grade CMS sensor chip using the BIAcore amine coupling reagents (N-ethyl-N′-dimethylamino-propylcarbodiimide, EDC; N-hydroxysuccinimide, NHS; and ethanolamine HCl, pH 8.5). […] A 3 min association phase of CD25 was followed by a 15 min injection of HBS-P running buffer (10 mM HEPES, 150 mM sodium chloride, 0.005% P-20 surfactant, pH 7.4) to monitor dissociation for each binding cycle, with a different CD25 concentration per cycle. The surface was regenerated with 20 mM HCl at 100 μl/min flow rate at the end of each cycle. […] Double referencing was applied in each analysis to eliminate background responses from reference surface and buffer only control (0 nM). […] Each set of experiments was performed three times to assess the standard deviation of the data.
(§2) Modified antibody proteins were tested for binding affinity using a surface plasmon resonance assay format in a BIAcore device. […] Recombinant soluble human CD25 was flowed over the sensor chip and changes in mass were detected.
In test [14] the target is T5, CD25 (recombinant). Nature of the test: ELISA, relative to wild type; * = similar to WT.
The target of test [15] is T6, recombinant human CD25 (IL2-Rα). Nature of the test: SPR (BIAcore), antibody captured by anti-human Fc, soluble human CD25 as analyte, n=3. The source holds these as a separate data set.
Method: as §1, §2
The target of test [16] is T7, cynomolgous CD25-HA (cynomolgous monkey, UniProt H6WS54 22-240).
T7 construct: also called cynomolgous monkey CD25; cmCD25; not shown: exact C-terminal limit of the PDL BioPharma construct
T7 sequence: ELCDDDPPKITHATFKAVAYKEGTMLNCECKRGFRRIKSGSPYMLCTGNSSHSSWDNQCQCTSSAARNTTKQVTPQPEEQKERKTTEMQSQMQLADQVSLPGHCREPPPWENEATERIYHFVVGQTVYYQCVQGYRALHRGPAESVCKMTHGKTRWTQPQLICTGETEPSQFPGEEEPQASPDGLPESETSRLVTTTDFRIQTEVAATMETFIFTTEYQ
Nature of the test: SPR (BIAcore), antibody captured by anti-human Fc, cynomolgous CD25-HA as analyte, n=3.

Residue numbers refer to the chain shown, from its start. Numbers in names are those of the source. Read-outs that look alike come from different tables or passages of the source.

B1: NuhuTacVH with daclizumabVL (antibody, V domains shown)
VH: EVQLVQSGAEVKKPGASVKVSCKASGYTFTSYRMHWVRQAPGQGLEWIGYINPSTGYTEYNQKFKDKATMTADKSISTAYMELSSLRSEDTAVYYCARGGGVFDYWGQGTLVTVSS
VL: DIQMTQSPSTLSASVGDRVTITCSASSSISYMHWYQQKPGKAPKLLIYTTSNLASGVPARFSGSGSGTEFTLTISSLQPDDFATYYCHQRSTYPLTFGQGTKVEVK
notes: combination antibody
By EC50 is commonly meant the concentration at which the effect is half-maximal. For the molecule B1, the EC50 in test [1] is 0.47 µg/mL.

B2: NuhuTac (antibody, V domains shown)
VH: B1 VH
VL: EIVLTQSPATLSLSPGERATLTCSASSSISYMHWFQQKPGQAPRLLIYTTSNLASGIPARFSGSGSGTDYTLTISSLEPEDFAVYYCHQRSTYPLTFGQGTKVEIK
notes: rehumanization of mouse anti-Tac on frameworks R3.5H5G (VH) and ka3d1 (VL); also called rehumanized anti-Tac; rehumanized antibody
On to B2, for which the EC50 was determined as 0.71 µg/mL in test [2] and 0.49 µg/mL in test [1].

B3: Variant C9 (antibody, name in Kabat numbering, V domains shown)
VH: B1 VH with E1Q, A16S, N52R, S54K, T55R, E59Q, M70I, K74E, I76T, S77N
VL: B1 VL
notes: Isotype as printed: G1 fa
In general, Kd refers to the equilibrium constant for the complex coming apart. B3: in test [3], the ELISA fold improvement turned out to be 3.97 fold. In test [4], this molecule yielded a Kd of 181 pM.

B4: Variant C38 (antibody, name in Kabat numbering, V domains shown)
VH: B1 VH with E1Q, A16S, I48M, N52S, S54R, T55K, M70I, K74E, I76T, S77N
VL: B1 VL
notes: Isotype as printed: G2M3.QL
On to B4, for which the “Kit225 (fold improvement in inhibition of IL2-induced Kit225 proliferation)” value in test [5] was determined as 3.6 fold. Also, the “PBMC (fold improvement in inhibition of IL2-induced PHA blast proliferation)” value in test [5] was 5.8 fold. Also, the Kd in test [6] was determined as 100 pM; in test [8], 9.5 pM. Further, in [7], the ELISA fold improvement came out at 8.2 fold.

B5: daclizumab variant S79 (antibody, IgG1, name in Kabat numbering, V domains shown)
VH: B1 VH with E1Q, A16S, M70I, I76T, S77N
VL: B1 VL
notes: IgG1; Kabat positions; also called E73K
Take B5: the “ELISA (wt = 1)” value in [9] was 1.5 fold (wt = 1). Besides, the dissociation constant (Kd) in test [10] is 388 pM.

B6: Variant C35 (antibody, name in Kabat numbering, V domains shown)
VH: B1 VH with E1Q, A16S, I48M, N52K, T55R, M70I, K74E, I76T, S77N
VL: B1 VL with N52E
notes: Isotype as printed: G2M3.QL
As for B6, in test [5], the “Kit225 (fold improvement in inhibition of IL2-induced Kit225 proliferation)” value worked out at 3 fold and the “PBMC (fold improvement in inhibition of IL2-induced PHA blast proliferation)” value is 7.2 fold. The same molecule registered a Kd in [6] of 188 pM. For the same molecule, the ELISA fold improvement in test [7] turned out to be 7 fold. The molecule further gave a dissociation constant Kd in test [8] of 34 pM.

B7: Variant C12 (antibody, name in Kabat numbering, V domains shown)
VH: B1 VH with E1Q, A16S, N52S, S54R, T55R, E59Q, M70I, K74E, I76T, S77N
VL: B1 VL
notes: Isotype as printed: G1 fa
Turning to B7, the ELISA fold improvement in [3] turned out to be 3.98 fold. This molecule registered a Kd in test [4] of 155 pM.

B8: DAC I48V (antibody, IgG1, name in Kabat numbering, V domains shown)
VH: B1 VH with E1Q, A16S, I48V, M70I, K74E, I76T, S77N
VL: B1 VL
notes: E.HAT variant, IgG1/kappa
Usually koff stands for the first-order rate constant of dissociation. As usually defined, the kon is a measure of how fast the partners come together. As for B8, the “Relative % Potency” value in [11] amounted to 109%. Besides, in test [12], the “Relative % KD” value came to 100%. Besides, in test [13], the dissociation constant Kd was determined as 493 pM, the koff amounted to 0.000183 s⁻¹ and the kon was found to be 371000 M⁻¹ s⁻¹.

B9: Variant C10 (antibody, name in Kabat numbering, V domains shown)
VH: B1 VH with E1Q, A16S, N52R, S54R, T55R, E59Q, M70I, K74E, I76T, S77N
VL: B1 VL
notes: Isotype as printed: G1 fa
B9 returned an ELISA fold improvement in test [3] of 3.91 fold. In [4], binding was put at a Kd of 244 pM.

B10: daclizumab VH and NuhuTacVL (antibody, V domains shown)
VH: B1 VH with E1Q, A16S, M70I, K74E, I76T, S77N
VL: B2 VL
notes: combination antibody
With B10, the EC50 in test [1] came out at 1.18 µg/mL.

B11: Variant C40 (antibody, name in Kabat numbering, V domains shown)
VH: B1 VH with E1Q, A16S, I48M, N52S, S54R, T55K, M70I, K74E, I76T, S77N
VL: B1 VL with N52E
notes: Isotype as printed: G2M3.QL
With B11, the “PBMC (fold improvement in inhibition of IL2-induced PHA blast proliferation)” value in [5] turned out to be 7.7 fold. The figures for the Kd in test [6] and in test [8] were 74 pM and 12 pM, respectively. The molecule further displayed an ELISA fold improvement in test [7] of 6.8 fold.

B12: DAC I48L (antibody, IgG1, name in Kabat numbering, V domains shown)
VH: B1 VH with E1Q, A16S, I48L, M70I, K74E, I76T, S77N
VL: B1 VL
notes: E.HAT variant, IgG1/kappa
On to B12, for which the “Relative % Potency” value in [11] is 132%. For the same molecule, in [12], the “Relative % KD” value is 83%. Besides, in test [13], the Kd amounted to 597 pM, the off-rate constant (koff) turned out to be 0.000222 s⁻¹ and the kon came out at 372000 M⁻¹ s⁻¹.

B13: daclizumab variant S78 (antibody, IgG1, name in Kabat numbering, V domains shown)
VH: B1 VH with E1Q, A16S, I48V, M70I, K74E, I76T, S77N
VL: B1 VL
notes: IgG1; Kabat positions; also called I48V; DAC I48V
In the case of B13, the “ELISA (wt = 1)” value in [14] was 1.1 fold (wt = 1). Further, in test [10], the “Fold improvement (KD)” value is 1 fold over wild type, the Kd came to 493 pM, the off-rate constant (koff) came to 0.000183 s⁻¹ and the kon was 371000 M⁻¹ s⁻¹.

B14: daclizumab variant S76 (antibody, IgG1, name in Kabat numbering, V domains shown)
VH: B1 VH with E1Q, A16S, I48L, M70I, K74E, I76T, S77N
VL: B1 VL
notes: IgG1; Kabat positions; also called I48L; DAC I48L
In the case of B14, in test [14], the “ELISA (wt = 1)” value is 1.32 fold (wt = 1). Further, in [10], the “Fold improvement (KD)” value is 0.9 fold over wild type, the Kd came to 597 pM, the off-rate (koff) was 0.000222 s⁻¹ and the association rate constant (kon) is 372000 M⁻¹ s⁻¹.

B15: DAC I48M (antibody, IgG1, name in Kabat numbering, V domains shown)
VH: B1 VH with E1Q, A16S, I48M, M70I, K74E, I76T, S77N
VL: B1 VL
notes: E.HAT variant, IgG1/kappa
As to B15, the dissociation constant Kd in test [15] was found to be 357 pM; in test [16] it was 371 pM; in [13] it was 375 pM.

B16: Variant C11 (antibody, name in Kabat numbering, V domains shown)
VH: B1 VH with E1Q, A16S, N52S, S54K, T55R, E59Q, M70I, K74E, I76T, S77N
VL: B1 VL
notes: Isotype as printed: G1 fa
Regarding B16, the ELISA fold improvement in test [3] turned out to be 3.47 fold. The equilibrium dissociation constant (Kd) in test [4] was found to be 138 pM.
